Measurements: PMC10050189, “Alpha 2-macroglobulin acts as a clearance factor in the lysosomal degradation of extracellular misfolded proteins” (Scientific Reports, 2023)

B1: α2M–mCherry–sfGFP–His (natural protein, human (cDNA from HepG2), UniProt P01023 24-1474, looked up)
chain: SVSGKPQYMVLVPSLLHTETTEKGCVLLSYLNETVTVSASLESVRGNRSLFTDLEAENDVLHCVAFAVPKSSSNEEVMFLTVQVKGPTQEFKKRTTVMVKNEDSLVFVQTDKSIYKPGQTVKFRVVSMDENFHPLNELIPLVYIQDPKGNRIAQWQSFQLEGGLKQFSFPLSSEPFQGSYKVVVQKKSGGRTEHPFTVEEFVLPKFEVQVTVPKIITILEEEMNVSVCGLYTYGKPVPGHVTVSICRKYSDASDCHGEDSQAFCEKFSGQLNSHGCFYQQVKTKVFQLKRKEYEMKLHTEAQIQEEGTVVELTGRQSSEITRTITKLSFVKVDSHFRQGIPFFGQVRLVDGKGVPIPNKVIFIRGNEANYYSNATTDEHGLVQFSINTTNVMGTSLTVRVNYKDRSPCYGYQWVSEEHEEAHHTAYLVFSPSKSFVHLEPMSHELPCGHTQTVQAHYILNGGTLLGLKKLSFYYLIMAKGGIVRTGTHGLLVKQEDMKGHFSISIPVKSDIAPVARLLIYAVLPTGDVIGDSAKYDVENCLANKVDLSFSPSQSLPASHAHLRVTAAPQSVCALRAVDQSVLLMKPDAELSASSVYNLLPEKDLTGFPGPLNDQDNEDCINRHNVYINGITYTPVSSTNEKDMYSFLEDMGLKAFTNSKIRKPKMCPQLQQYEMHGPEGLRVGFYESDVMGRGHARLVHVEEPHTETVRKYFPETWIWDLVVVNSAGVAEVGVTVPDTITEWKAGAFCLSEDAGLGISSTASLRAFQPFFVELTMPYSVIRGEAFTLKATVLNYLPKCIRVSVQLEASPAFLAVPVEKEQAPHCICANGRQTVSWAVTPKSLGNVNFTVSAEALESQELCGTEVPSVPEHGRKDTVIKPLLVEPEGLEKETTFNSLLCPSGGEVSEELSLKLPPNVVEESARASVSVLGDILGSAMQNTQNLLQMPYGCGEQNMVLFAPNIYVLDYLNETQQLTPEIKSKAIGYLNTGYQRQLNYKHYDGSYSTFGERYGRNQGNTWLTAFVLKTFAQARAYIFIDEAHITQALIWLSQRQKDNGCFRSSGSLLNNAIKGGVEDEVTLSAYITIALLEIPLTVTHPVVRNALFCLESAWKTAQEGDHGSHVYTKALLAYAFALAGNQDKRKEVLKSLNEEAVKKDNSVHWERPQKPKAPVGHFYEPQAPSAEVEMTSYVLLAYLTAQPAPTSEDLTSATNIVKWITKQQNAQGGFSSTQDTVVALHALSKYGAATFTRTGKAAQVTIQSSGTFSSKFQVDNNNRLLLQQVSLPELPGEYSMKVTGEGCVYLQTSLKYNILPEKEEFPFALGVQTLPQTCDEPKAHTSFQISLSVSYTGSRSASNMAIVDVKMVSGFIPLKPTVKMLERSNHVSRTEVSSNHVLIYLDKVSNQTLSLFFTVLQDVPVRDLKPAIVKVYDYYETDEFAIAEYNAPCSKDLGNA
notes: alpha 2-macroglobulin (α2M), cDNA amplified from HepG2 total cDNA; Tetramer with an intact thiol ester by native-PAGE and heat fragmentation; also called α2M–RG; α2M–RFP–GFP–His; source: purified from conditioned medium (Ni–NTA); not shown: mCherry, C-terminal, kept; sfGFP, C-terminal, kept

Columns and labels:
α2M–mCherry–sfGFP–His = biological target: B1; test: co-IP; purified α2M–RG (0.1 μM) mixed with purified substrate, pre-incubated at 50 °C (heat stress) or 4 °C for 1 h; anti-GFP (GFP-nanobody) sepharose 2 h at 4 °C, washed four times with PBS; conditions: both partners purified
[1] = biological target: the molecule itself; test: native gel or EMSA; Native-PAGE of purified α2M–RG on NuPAGE 3 to 8% Tris–acetate gels, Tris–glycine running buffer pH 8.3, with or without methylamine; migrated to ~920 kDa

binding result (α2M–mCherry–sfGFP–His) | Binder | stoichiometry N [1]
binds | His–ALFA–3C–ESD (natural protein, human, UniProt P10768 1-282, looked up, S-formylglutathione hydrolase (ESD), cDNA amplified from HEK293 total cDNA; A 3C protease site stands between the tags and the protein; Heat-stressed at 50 °C for 1 h together with the chaperone; also called recombinant ESD; source: E. coli BL21(DE3) LOBSTR, purified (HisPur Cobalt Resin)) MALKQISSNKCFGGLQKVFEHDSVELNCKMKFAVYLPPKAETGKCPALYWLSGLTCTEQNFISKSGYHQSASEHGLVVIAPDTSPRGCNIKGEDESWDFGTGAGFYVDATEDPWKTNYRMYSYVTEELPQLINANFPVDPQRMSIFGHSMGGHGALICALKNPGKYKSVSAFAPICNPVLCPWGKKAFSGYLGTDQSKWKAYDATHLVKSYPGSQLDILIDQGKDDQFLLDGQLLPDNFIAACTEKKIPVVFRLQEGYDHSYYFIATFITDHIRHHAKYLNA | 
binds | His–ALFA–3C–ALDH1A1 (natural protein, human, UniProt P00352 1-501, looked up, retinal dehydrogenase 1 (ALDH1A1), cDNA amplified from HEK293 total cDNA; A 3C protease site stands between the tags and the protein; Heat-stressed at 50 °C for 1 h together with the chaperone; also called recombinant ALDH1A1; source: E. coli BL21(DE3) LOBSTR, purified (HisPur Cobalt Resin)) MSSSGTPDLPVLLTDLKIQYTKIFINNEWHDSVSGKKFPVFNPATEEELCQVEEGDKEDVDKAVKAARQAFQIGSPWRTMDASERGRLLYKLADLIERDRLLLATMESMNGGKLYSNAYLNDLAGCIKTLRYCAGWADKIQGRTIPIDGNFFTYTRHEPIGVCGQIIPWNFPLVMLIWKIGPALSCGNTVVVKPAEQTPLTALHVASLIKEAGFPPGVVNIVPGYGPTAGAAISSHMDIDKVAFTGSTEVGKLIKEAAGKSNLKRVTLELGGKSPCIVLADADLDNAVEFAHHGVFYHQGQCCIAASRIFVEESIYDEFVRRSVERAKKYILGNPLTPGVTQGPQIDKEQYDKILDLIESGKKEGAKLECGGGPWGNKGYFVQPTVFSNVTDEMRIAKEEIFGPVQQIMKFKSLDDVIKRANNTFYGLSAGVFTKDIDKAITISSALQAGTVWVNCYGVVSAQCPFGGFKMSGNGRELGEYGFHEYTEVKTVTVKISQKNS | 
 | B1 | 4
